How the values were obtained:
[1] = target: soluble FcγRIIIa (UniProt P08637 17-208); test: SPR
[2] = target: recombinant, soluble HIV-1 UG37 gp140 (HIV-1 clade A strain 92UG037); test: SPR

Chain of soluble FcγRIIIa (P08637 17-208): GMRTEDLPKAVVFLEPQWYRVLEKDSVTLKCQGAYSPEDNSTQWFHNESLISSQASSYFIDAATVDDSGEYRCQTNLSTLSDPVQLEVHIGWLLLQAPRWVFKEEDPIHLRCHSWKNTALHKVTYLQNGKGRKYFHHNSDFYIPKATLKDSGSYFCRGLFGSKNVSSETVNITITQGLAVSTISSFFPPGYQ

B1: Mammalian cell-expressed N6 (mN6), broadly neutralising anti-HIV monoclonal antibody N6 expressed in HEK-293T cells (antibody)
chain 1: RAHLVQSGTAMKKPGASVRVSCQTSGYTFTAHILFWFRQAPGRGLEWVGWIKPQYGAVNFGGGFRDRVTLTRDVYREIAYMDIRGLKPDDTAVYYCARDRSYGDSSWALDAWGQGTTVVVSA
chain 2: YIHVTQSPSSLSVSIGDRVTINCQTSQGVGSDLHWYQHKPGRAPKLLIHHTSSVEDGVPSRFSGSGFHTSFNLTISDLQADDIATYYCQVLQFFGRGSRLHIK
modifications: N-glycosylated (size shift on PNGaseF digestion) | N-glycosylated (size shift on PNGaseF digestion)
Binder B1 has a koff [1] of 0.17 s⁻¹ and a koff [2] of 0.000189 s⁻¹.

B2: Plant-expressed N6 (pN6), broadly neutralising anti-HIV monoclonal antibody N6 expressed in glycoengineered ΔXF N. benthamiana (antibody)
chain 1: RAHLVQSGTAMKKPGASVRVSCQTSGYTFTAHILFWFRQAPGRGLEWVGWIKPQYGAVNFGGGFRDRVTLTRDVYREIAYMDIRGLKPDDTAVYYCARDRSYGDSSWALDAWGQGTTVVVSA
chain 2: YIHVTQSPSSLSVSIGDRVTINCQTSQGVGSDLHWYQHKPGRAPKLLIHHTSSVEDGVPSRFSGSGFHTSFNLTISDLQADDIATYYCQVLQFFGRGSRLHIK
modifications: N-glycosylated: GnGn 81.67%, fucosylated 0.69%, no xylosylation, 6.48% non-glycosylated | N-glycosylated: mature complex-type glycans, α(1,3)-fucose 20.93%, no xylosylation, no high mannose …
B2 was tested, and the koff [1] was 0.016 s⁻¹ and the koff [2] was 0.000115 s⁻¹.

Reference: paper PMC8240387 (2021)
